Test results: the DeepSol protein solubility set

Experiment: soluble on expression in E. coli; label from the status in PepcDB or PDB records

Sequence | soluble on expression in E. coli
MKVSELMTTDPITVSIDDTFSKVMSKMNETGIHQLPVMDGDRYAGMITYSDLLKKRSIQVKSKISNYTISTPTLNADDDVLEAVRLIKDTGLSALPVFQKGKLVGIISRTDIIKNLPQIVDVRDVRIFQIMSSDPIYVYEDDDIEEAFDSMRMLNEVEIPVASRDEKLSGIIRLNSILNILYRQKEKIKYGGYGEKEPVEIKCKSLMDPPVSVDRYAGIDEAVKLMMQYSLHIMPVTDSGKIVGIVDFSDLINMIKTESKEGILIEISGLDVYDEDLYDIAFELSERFLDKFSKMTDVSQGKLLIHVMKYKTQGSTKYSIRTRISAPPLFLVQNGSGWNFAEVLGEIFDRYEERIKKMKEKQ | not soluble
MKVYVGNLGTGAGKGELERAFSYYGPLRTVWIARNPPGFAFVEFEDPRDAEDAVRGLDGKVICGSRVRVELSTGMPRRSRFDRPPARRKLLEVLFNGPLEH | soluble
MKWILLPILFVTLAVSGTALAQPSPTETVKKTVDDVIKIVSDKELKKPQNEKRRRQEIKRAIGTVFDSAEMAQRAMARHWRDRNAAEKKEFVDLFENLLENSYAGKIESYNQEKVVYLKEAIDGDYAEVRSKIVTARRDEYSLDYRLMLKGGKWVVYDIVIEGVSLVSNYRTQFNKIITNQGYAELVKKLRSKNKEISMPLEHHHHHH | soluble
MKWSSMLKVSAISLSVFTAVSAKAQLGEPEIEDLKFGFIKLTDMAPLAVAYEKGFFEDEGLYVTLEAQANWKVLLDRVIDGELDGAHMLAGQPLGATIGVGTKAEVITAFSMDLNGNAITVSNDTWEQMKPHIPKQPDGKPVHPIKADSLKPVVDSYRDKGKSFNMGMVFPVSTHNYELRYWLAAGGIHPGFYAPDSGDNSGQLDADVLLSVTPPPQMPATMEAGTIKGYCVGEPWNQQAVFKGIGTPVVTDYEIWKNNPEKVFGVSKAWAEKNPNTHIRVVKALIRAAHWLDENSNANRQEAVKMLAKSEYVGADADVIANSMTGTFEYEKGDKRDVPDFNVFFRHNATYPYYSDAIWYLTQMRRWGQISSEKSDDWYMDVAKEVYRPDIYQQAAQALIEDGVLSKKDFPDFSAEDGFRPPQTHFIDNIVYDGREPNKYLEKFSIGLKGKDKVMAGDPLEHHHHHH | soluble
MKYDDTINIAFFGLDRRQKTDISRSDSIMILTMDPTHKKLKLSSIMRDTYVNVDGHGMTKITHAYAYGGPQLAIKTINENFNLNIKDYVTVDFYGLEKIIDKLNGVEVDVQPDEVNYLNSYIDEVSKYEKVTPNHVSSAGKQLLDGRQAVAYSRIRYTAGGDFQRTERQRTVLMAVFNKMKAQGKSNMLSMMDELLPYAETDLGSLDIAKYGAKFLSSNIDSIDQERFPVDGYCSGITVDNVWYLKTDLGVTSDQMKKYIFEDVKPTPKASLVNIPAKLEHHHHHH | soluble
MKYDLTTQDSTIKRNNSINDKDFEKLVMDLQPLIIRRIKTFGFNHYDLEDLYQEILIRMYRSVQTFDFSGEQPFTNYVQCLITSVKYDYLRKYLATNKRMDNLINEYRVTYPCAIKRFDVENNYLNKLAIKELICQFKYLSAFEKDVMYLMCEQYKPREIAQLMHVKEKVIYNAIQRCKNKIKRYFKMI | not soluble
MKYIDCAVIGAGPAGLNASLVLGRARKQIALFDNNTNRNRVTQNSHGFITRDGIKPEEFKEIGLNEVMKYPSVHYYEKTVVMITKQSTGLFEIVTKDHTKYLAERVLLATGMQEEFPSIPNVREYYGKSLFSCPYCDGWELKDQPLIIISENEDHTLHMTKLVYNWSTDLVIATNGNELSQTIMDELSNKNIPVITESIRTLQGEGGYLKKVEFHSGLRIERAGGFIVPTFFRPNQFIEQLGCELQSNGTFVIDDFGRTSEKNIYLAGETTTQGPSSLIIAASQGNKAAIAINSDITDERF | soluble
MKYILFATAGHVDHGKTTLIKTLTGIDTDRLPEEKKRGLSIDIGFAYIDFPDINTRLEIIDVPGHERFIKNAIAGICSASGLILVVDPNEGIMPQTIEHLRVAKSFGIKHGIAVLTKMDKVDEELAHIAEEELIAFLEKEEMNMEIVKVSAVTGQGIEDLKNSIKKLLESINNLNKHKPLRIFVDSAFVVKGYGTVLRGSCFEGEVKEGDKVVVEPIGVISRVRKMQNHGVFVKKAVAGERIALNLPEVDAKKVKRGFLILKPESYEKSNVLIVKTEIDLKPGKIYQVFFGMRETVGKISVIDKGIYLVRLKENAIVRRGDKLVVLDSSGNFLGGAEVLHPKVRVTKKAFIKKNIKDLLENFECYLLKERGPIGLKLEFFKRITGVSPKVANLKPESIEIRGVYYLKGFIENLKLKIKKFLDTELQNAFGVDKEKVKSMFSLNEELLKYILDELKTYKIVNELIIDERKSDLEKNEDFQKLMSILKGGIKEEREIILEGIPKEILTLSIKRKYAHRIGEYLIISDELLKKYINELKELGKTFNVQQAKNKLGLTRKYLIPLLEYLDYLGLTVREGNERRWKR | soluble
MKYKIFASTTPQTEPVLNKLRAVLKTWQAVENGYEYVFVLGGDGFFVSTLANYNCDSCKVVGINTGHIGFYTSFNGDDLDENFISKLTSFEFKKINLLEVKTKNHSFLVLNELAVYTNTAYPINIFIDDNHWESYRGSGLLIGPRTGSTALAKSAKGAVIFPNVDVVQIIELNPLLHPNQITIQSPIILPMQTKVEFRIKKAFKAEQFPNFYADGIKLDLKNEDTSISFQLVLSRSMFHASLKTKDFIDKLKSTFIKQSLEHHHHHH | soluble
MKYNREKLKNKVCLAIIGMPHGIKGDVLLKILSSEPQRLKTYGTLYDDRGHSYEIVMLRMQKKNAIVHFKGVEDRSAAEALRGIHLYVARDQLVDDLTEDEFYQVDLIGLRVQDCTGRILGEVSGLFNFGAGDLLEMRLNTGKTVLIPFSKAAVLEVCIASGFLVVDPVAAGLSDGGENTLEHHHHHH | soluble
MKYPTIIDSQQLFREPDHPLKAGLDPKCRSTKPLCPDTFAKVMKTIDTFIFDADGVLWLGESVMPGSPRLIDYLVKHNKQIIVLTNNATKSRAVYAKKLAKLGYNSSKMNKNNLVNPAAVVADTLHRAGLDGKRVYLIGEQGLRDEMDELGIEYFGHGPEKKQDEADGSGAFMYDIKLEENVGAVVVGYEKHFDYIKMMKASNYLREEGVLFVATNEDETCPGPNPEVVIPDAGPIVAAIKCASGRDPLTVGKPCTPAFNYIKRKWNINPSRTMMIGDRTNTDVKFGRDHGMKTLLVLSGCHQIEDIIENQMNERDDMVPDYVAPCLGALVPERI | not soluble
MKYVFIENHRAEFSIKAMCRVLRVARSGWYVWLRRRHQMSLRQQFRLTCDAAVHKAFFEAKQRYGAPRLADELPEFNIKTIAASLRRQGLRAKASRKFSPVSYRAHGLPVLENLLEQDFSASGPKPEVGG | not soluble
MLCAVYKSSRKADTYLFVNKRDCFDDVPQALLDMFGVPQLVMVFPIVKRESLGIADINKVRAALEEKGFYLQIPPPQVNLLAEHRENLGIKD | soluble
MLCEIECRALSTAHTRLIHDFEPRDALTYLEGKNIFTEDHSELISKMSTRLERIANFLRIYRRQASELGPLIDFFNYNNQSHLADFLEDYIDFAINEPDLLRPVVIAPQFSRQMLDRKLLLGNVPKQMTCYIREYHVDRVIKKLDEMCDLDSFFLFLHGRAGSGKSVIASQALSKSDQLIGINYDSIVWLKDSGTAPKSTFDLFTDILLMLKSEDDLLNFPSVEHVTSVVLKRMICNALIDRPNTLFVFDDVVQEETIRWAQELRLRCLVTTRDVEISNAASQTCEFIEVTSLEIDECYDFLEAYGMPMPVGEKEEDVLNKTIELSSGNPATLMMFFKSCEPKTFEKMAQLNNKLESRGLVGVECITPYSYKSLAMALQRCVEVLSDEDRSALAFAVVMPPGVDIPVKLWSCVIPVDICSNEEEQLDDEVADRLKRLSKRGALLSGKRMPVLTFKIDHIIHMFLKHVVDAQTIANGISILEQRLLEIGNNNVSVPERHIPSHFQKFRRSSASEMYPKTTEETVIRPEDFPKFMQLHQKFYDSLKNFACC | soluble
MLDKLRSRLVHAGPSLMSVPVKLTPFALKRQVLEQVLSWQFRQALADGELEFLEGRWLSIHVRDIDLKWYTTVENEKLIVSQQADADVSFSADASDLLMIAARKQDPDTLFFQRRLVIEGDTELGLYVKNLMDAIELEQMPKALRVMLLQLADFVEAGMKNSPETKQTSVGEPC | not soluble
MLDSKLKAPVFTVRTQGREYGEFVLEPLERGFGVTLGNPLRRILLSSIPGTAVTSVYIEDVLHEFSTIPGVKEDVVEIILNLKELVVRFLNPSLQTVTLLLKAEGPKEVKARDFLPVADVEIMNPDLHIATLEEGGRLNMEVRVDPGVGYVPAEKHGIKDRINAIPVDAVFSPVRRVAFQVEDTRLGQRTDLDKLTLRIWTDGSVTPLEALNQAVEILREHLTYFSNPQAAAVAAPEEAKEPEAPPEQEEELDLPLEELGLSTRVLHSLKEEGIESVRALLALNLKDLKNIPGIGERSLEEIKEALEKKGFTLKE | soluble
MLDYIPWIGNGYRYGNGYKGVAGAGHSATNGSPAGNTSSTTQSNDVAPTFSNVGVGLKANVQGTLGDSQTTTVGGHQWPTLDPANLQLWTGAEWRNDSKTQNNTTTNENHTKFASATGSGQQQGSTTTTSAGNPDSLKQDKADKSGNSISVQEATSGDNLTNYTNLPPNLTPTSDWPNALSFTNKNNAQRAQLFLRGLLGSIPVLVNNLEHHHHHH | not soluble
MLEADDQGCIEEQGVEDSANEDSVDAKPDRSSFVPSLFSKKKKNVTMRSIKTTRDRVPTYQYNMNFEKLGKCIIINNKNFDKVTGMGVRNGTDKDAEALFKCFRSLGFDVIVYNDCSCAKMQDLLKKASEEDHTNAACFACILLSHGEENVIYGKDGVTPIKDLTAHFRGDRSKTLLEKPKLFFIQACRGTELDDGIQADSGPINDTDANPRYKIPVEADFLFAYSTVPGYYSWRSPGRGSWFVQALCSILEEHGKDLEIMQILTRVNDRVARHFESQSDDPHFHEKKQIPCVVSMLTKELYFSQ | soluble
MLEDLRANSWSLRPCCMVLAYRIAHFCSVWRKKNVLNNLWAAPVLVLYRVITECLFGYEIQAAATIGRRFTIHHGYAVVINKHVVAGDDFTIRHGVTIGNRGADSLACPVIGNGVELGANVILLGDITIGNHVTIGAGSVVLDSIPDHALVVGEKARVKVST | not soluble
MLEEEQALLEKVVETLSNDIEEKEEKIEKLRRSYTNGNGALANIYEDYRSGFKSGIGARPGR | not soluble
MLELKSDDREYTANMLLLNDTDKTVKHKTVGEFYQDLIKQYANESKCGNRLIYKSSYNSLYTFTKGNLDIPFSAINPSWLCNYEKWLRSKGNKETTMSLMLRTLRSTYNKAIENKYARKSDYPFNEYKIGKFDVSTEKRAIAKADIMKLTADISSVGKRQYVQLSKDIFMFSYLCGGINFTDIANLTSKNIVDGKRLHYIRQKTGKLIKLGLSDAALRIIERYAPDSHGYLFPILNVEVHKTALQKQNRIHKILSKVNSNLKLIATQSGLDINLTTYVARHSFATVLKKSGVNIALISEALGHSDLATTQIYLDSFDNEQIDDAMKNLL | not soluble
MLENSKKLIMNFVLKYSKKKRQNSGINISEICKFFEHVPLSCAALGLATKKNFGGEICAFKERKIKNYCKIFEPKSALFQTPPPPLIVGVISGAH | soluble
MLEPCTKRSELLYRMHLLSKEISHVFEQQTNMSFTKVEILFHIKQTPGQSQNRLKEKLYIDSASITRHLKRMEEQGLIVRKKQDENKRYTYLFLTPAGEAELTSLLTEKEKFQTGALEGFSEDEVSALLKSVTKMMNNVEKLEEKLK | not soluble
